For one molecule, EC50 results are on record in patent US20240052052A1 (published 2024).

The assay addresses T1, human CD24 (human, UniProt P25063 27-59, heavily glycosylated, GPI-anchored (as described in the background)).
T1 chain: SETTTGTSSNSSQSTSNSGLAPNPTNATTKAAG
Nature of the assay: FACS binding; DoHH2 cells.

As usually defined, the EC50 is the midpoint of the concentration-response curve.

B1: SN3 (antibody, V domains shown)
VH: QVQLKESGPGLVAPSQSLSITCTVSGFSLTSYGVHWVRQPPGKGLEWLGVIWAGGSTNYNSALMSRLSISKDNSKSQVFLKMNSLQTDDTAMYYCAVYYGYLFFAYWGQGTLVTVSA
VL: ENVLTQSPAIMSASPGEKVTMTCSASSSVSYMHWYQQKSTTSPKLWIYDTSKLASGVPGRFSGSGSGNSYSLTISSMEAEDVATYYCFQGSGYPLTFGGGTKLEIK
Take B1: a half-maximal effect (EC50) was put at 1.87 nM.
